# Experimental data: US20080026996A1, “Selective Vpac2 Receptor Reptide Agonists” (ELI LILLY AND COMPANY, priority 2004, published 2008)
# Where no end group is shown, it is not given here. [ ]: non-standard residue; d: D form. The star is where a group is joined. Orn = NCCC[C@H](N)C(=O)O; Hexanoyl = CCCCCC(=O)*; Aib = CC(C)(N)C(=O)O
# T1: human VPAC2 (Homo sapiens, UniProt P41587)
# T1 construct: expressed in transfected cells
# T1 sequence (P41587 24-438): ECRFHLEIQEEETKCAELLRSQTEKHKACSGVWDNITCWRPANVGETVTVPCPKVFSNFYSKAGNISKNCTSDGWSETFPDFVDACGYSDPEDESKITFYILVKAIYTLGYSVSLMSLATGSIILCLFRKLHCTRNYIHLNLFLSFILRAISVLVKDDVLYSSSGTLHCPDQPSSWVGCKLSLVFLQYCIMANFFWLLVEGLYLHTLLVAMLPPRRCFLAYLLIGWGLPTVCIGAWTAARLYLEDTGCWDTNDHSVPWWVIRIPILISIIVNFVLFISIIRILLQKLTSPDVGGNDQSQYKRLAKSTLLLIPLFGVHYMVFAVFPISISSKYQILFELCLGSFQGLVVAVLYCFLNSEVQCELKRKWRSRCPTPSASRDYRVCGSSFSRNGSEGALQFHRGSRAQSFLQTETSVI
# T2: human VPAC1 (Homo sapiens, UniProt P32241)
# T2 sequence (P32241 31-457): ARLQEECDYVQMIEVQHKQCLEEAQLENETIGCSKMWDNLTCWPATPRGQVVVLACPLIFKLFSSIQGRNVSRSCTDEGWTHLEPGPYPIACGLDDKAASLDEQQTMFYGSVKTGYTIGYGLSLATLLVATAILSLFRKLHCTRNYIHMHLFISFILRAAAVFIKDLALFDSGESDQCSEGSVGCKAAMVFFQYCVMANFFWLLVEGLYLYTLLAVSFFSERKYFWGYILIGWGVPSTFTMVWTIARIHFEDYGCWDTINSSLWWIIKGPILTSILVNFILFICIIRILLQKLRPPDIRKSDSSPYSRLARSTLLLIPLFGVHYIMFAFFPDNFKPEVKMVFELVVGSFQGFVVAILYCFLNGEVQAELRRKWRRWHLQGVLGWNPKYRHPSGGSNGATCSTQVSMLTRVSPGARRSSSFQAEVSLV
# T3: human VPAC2 receptor (human, UniProt P41587 24-438)
# T3 sequence (looked up): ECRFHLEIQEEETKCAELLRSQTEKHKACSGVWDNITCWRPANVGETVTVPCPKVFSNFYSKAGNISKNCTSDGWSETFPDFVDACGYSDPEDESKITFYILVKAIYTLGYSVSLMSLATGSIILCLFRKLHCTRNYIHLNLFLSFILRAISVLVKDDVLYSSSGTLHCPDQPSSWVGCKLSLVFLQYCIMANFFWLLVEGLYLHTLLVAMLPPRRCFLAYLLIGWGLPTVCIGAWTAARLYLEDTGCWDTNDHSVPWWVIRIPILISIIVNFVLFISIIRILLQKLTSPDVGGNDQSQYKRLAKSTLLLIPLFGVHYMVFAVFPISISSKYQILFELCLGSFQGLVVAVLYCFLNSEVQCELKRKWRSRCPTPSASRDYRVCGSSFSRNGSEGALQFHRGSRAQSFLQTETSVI
# How the values were obtained:
# human VPAC2 [1] = biological target: T1, human VPAC2; experiment: Filter binding assay, membranes of stable VPAC2 cell line, 125I-labeled VIP tracer (Table 2); conditions: read-out: Human VPAC2 Receptor Binding
# Description: (§1) For this assay, the solutions and equipment include:
# (§2) Presoak solution: 0.5% Polyethyleneamine in Aqua dest.
# (§3) Buffer for flushing filter plates: 25 mM HEPES pH 7.4
# (§4) Blocking buffer: 25 mM HEPES pH 7.4; 0.2% protease free BSA
# (§5) Assay buffer: 25 mM HEPES pH 7.4; 0.5% protease free BSA
# (§6) Dilution and assay plate: PS-Microplate, U form
# (§7) Filtration Plate Multiscreen FB Opaque Plate; […] Type B Glasfiber filter
# (§8) In order to prepare the filter plates, aspirate the presoak solution by vacuum filtration. Flush the plates twice with 200 μL flush buffer. Add 200 μL blocking buffer to the filter plate. The filter plate is then incubated […] for 1 hour at room temperature.
# (§9) Fill the assay plate with 25 μL assay buffer, 25 μL membranes (2.5 μg) suspended in assay buffer, 25 μL compound (agonist) in assay buffer, and 25 μL tracer (about 40000 cpm) in assay buffer. Incubate the filled plate for 1 hour with shaking.
# (§10) Conduct the transfer from assay plate to filter plate. Aspirate the blocking buffer by vacuum filtration and wash two times with flush buffer. Transfer 90 μL from the assay plate to the filter plate. Aspirate the 90 μL transferred from assay plate and wash three times with 200 μL flush buffer. Remove the plastic support. Dry for 1 hour at 60° C. Add 30 μL Microscint. Perform the count.
# human VPAC1 = biological target: T2, human VPAC1; experiment: Filter binding assay, membranes of cells transiently transfected with human VPAC1, 125I-labeled VIP tracer (Table 2); parameters: expressed in transfected cells; conditions: read-out: Human VPAC1 Receptor Binding
# Description: as §1, §2, §3, §4, §5, §6, §7, §8, §9, §10
# human VPAC2 [2] = biological target: T1, human VPAC2; experiment: Alpha screen cAMP in vitro potency, human VPAC2 receptor; assay type: cell-based; conditions: cAMP generation; single result from two analyses performed in a single run; read-out: Human VPAC2 Receptor: Alpha Screen EC50
# Description: Alpha screen: Cells are washed in the culture flask once with PBS. Then, the cells are rinsed with enzyme free dissociation buffer. The dissociated cells are removed. The cells are then spun down and washed in stimulation buffer. For each data point, 50,000 cells suspended in stimulation buffer are used. To this buffer, Alpha screen acceptor beads are added along with the stimuli. This mixture is incubated for 60 minutes. Lysis buffer and Alpha screen donor beads are added and are incubated for 60 to 120 minutes. The Alpha screen signal (indicative of intracellular cAMP levels) is read in a suitable instrument (e.g. AlphaQuest from Perkin-Elmer). Steps including Alpha screen donor and acceptor beads are performed in reduced light.
# human VPAC2 receptor = biological target: T3, human VPAC2 receptor; experiment: cell-based or functional assay
molecule,measurement,setting,value
H-H[dA]DAVFTDNYTRLRKQVAAKKYLQSIKNKRYGGPSSGAPPPS [Agonist P47],IC50,human VPAC2 [1],0.84 nM
same,IC50,human VPAC1,124 nM
HSDAVFTDNYTREKEKVAAKKYLQSIKNKRYGGPSSGAPPPS [Agonist P87],EC50,human VPAC2 [2],> 10000 nM
same,IC50,human VPAC2 [1],1110 nM
same,IC50,human VPAC1,636 nM
HSDAVFTDNYTRLRKQVAAKKYLQSIKKGGPSSGAPPPS [Agonist P85],IC50,human VPAC2 [1],1.7 nM
same,IC50,human VPAC1,226 nM
HSDAVFTDNYTRLRKQVAAKKYLQSIKRGGPSSGAPPPS [Agonist P82],IC50,human VPAC2 [1],1.9 nM
same,IC50,human VPAC1,195 nM
HSDAVFTDNYTRLRRQVAAKKYLQSIKNKRYGGPSSGAPPPS [Agonist P72],IC50,human VPAC2 [1],1.52 nM
same,IC50,human VPAC1,159 nM
HSDAVFTDNYTRLRRQVAARRYLQSIRNRRYGGPSSGAPPPS [Agonist P71],IC50,human VPAC2 [1],1.52 nM
same,IC50,human VPAC1,73.1 nM
[dH]SDAVFTDNYTRLRKQVAAKKYLQSIKNKRYGGPSSGAPPPS [Agonist P84],IC50,human VPAC2 [1],20 nM
same,IC50,human VPAC1,469 nM
Hexanoyl-HSDAVFTDNYTRLR[Aib]QVAA[Aib]KYLQSIKPKGGPSSGAPPPS (ends and bridges not checked) [P350],"EC50 cAMP, Alpha Screen",human VPAC2 receptor,0.13 nM
"HSDAVFTDNYTRLRXQVAAXKYLQSIKXGGPSSGAPPPS (N-terminal hexanoyl (C6); Aib at 15, 20; hR at 28) [P354]","EC50 cAMP, Alpha Screen",human VPAC2 receptor,0.14 nM
Hexanoyl-HSDAVFTDNYTRLR[Aib]QVAA[Aib]KYLQSI[dK][dK]GGPSSGAPPPS (ends and bridges not checked) [P353],"EC50 cAMP, Alpha Screen",human VPAC2 receptor,0.18 nM
Hexanoyl-HSDAVFTDNYTRLRKQVAAQKYLNQLKKGGPSSGAPPPS [P144],"EC50 cAMP, Alpha Screen",human VPAC2 receptor,0.32 nM
"HSDAVFTDNYTXLRXQLAAXKYLQSIXNXGGPSSGAPPPS (N-terminal hexanoyl (C6); Orn at 12, 27, 29; Aib at 15, 20) [P364]","EC50 cAMP, Alpha Screen",human VPAC2 receptor,0.11 nM
"HSDAVFTDNYTXLRXQIAAXKYLQSIXNXGGPSSGAPPPS (N-terminal hexanoyl (C6); Orn at 12, 27, 29; Aib at 15, 20) [P365]","EC50 cAMP, Alpha Screen",human VPAC2 receptor,0.13 nM
Hexanoyl-HSDAVFTDNYTRLR[Aib]QVAA[Aib]KYLQSIKKGGPSSGAPPPS (ends and bridges not checked) [P351],"EC50 cAMP, Alpha Screen",human VPAC2 receptor,0.11 nM
HSDAVFTDNYTRLRKQVAAKKYLQSIKNKKGGPSSGAPPPS [P9],"EC50 cAMP, DiscoveRx",human VPAC2 receptor,2.41 nM
Hexanoyl-HSDAVFTDNYTRLRKQVAAKKYLQ[Aib]IKNKRYGGPSSGAPPPS (ends and bridges not checked) [P187],"EC50 cAMP, Alpha Screen",human VPAC2 receptor,0.4 nM
Hexanoyl-HSDAVFTDNYT[Aib]LR[Aib]QVAA[Aib]KYLQSIKNKRYGGPSSGAPPPS (ends and bridges not checked) [P345],"EC50 cAMP, Alpha Screen",human VPAC2 receptor,1.17 nM
Hexanoyl-HSDAVFTDNYTRLRKQVAAKKYLQSIKNKRGGPSSGAPPPS [P123],"EC50 cAMP, Alpha Screen",human VPAC2 receptor,0.12 nM
Hexanoyl-HSDAVFTDNYTRLRKQVAAKKYLQSIKNSRGGPSSGAPPPS [P122],"EC50 cAMP, Alpha Screen",human VPAC2 receptor,0.14 nM
Hexanoyl-HSDAVFTDNYTRLR[Aib]QVAA[Aib]KYLQSIK[Aib]GGPSSGAPPPS (ends and bridges not checked) [P355],"EC50 cAMP, Alpha Screen",human VPAC2 receptor,0.1 nM
HSDAVWTDNYTRLRKQVAAKKYLQSIKNKRYGGPSSGAPPPS [P67],"EC50 cAMP, Alpha Screen",human VPAC2 receptor,94.1 nM
Hexanoyl-HSDAVFTDNYTRLR[Aib]QVAA[Aib]KYLQSIK[Aib]KGGPSSGAPPPS (ends and bridges not checked) [P349],"EC50 cAMP, Alpha Screen",human VPAC2 receptor,0.08 nM
[dH]SDAVFTDNYTRLRKQVAAKKYLQSIKNKRYGGPSSGAPPPS [P84],"EC50 cAMP, Alpha Screen",human VPAC2 receptor,185 nM
Hexanoyl-H[Aib]DAVFTDNYTRLRKQVAAKKYLQSIKNKRYGGPSSGAPPPS (ends and bridges not checked) [P166],"EC50 cAMP, Alpha Screen",human VPAC2 receptor,0.15 nM
Hexanoyl-HSDAVFTDNYTALR[Aib]QVAA[Aib]KYLQSI[Orn]N[Orn]GGPSSGAPPPS [P366],"EC50 cAMP, Alpha Screen",human VPAC2 receptor,2.6 nM
HSDAVFTDNYTRLRKQVAAKKYLQSIKNKRGGT [P7],"EC50 cAMP, DiscoveRx",human VPAC2 receptor,2.78 nM
HSDAVFTDNYTRLRKQVAAKKYLQSIKNKKGGT [P8],"EC50 cAMP, DiscoveRx",human VPAC2 receptor,1.61 nM
